B1: KdgDPn (Polaromonas naphthalenivorans CJ2) (protein)
chain: MNPQDLKTIVSSGLLSFPVTDFDEQGDFRPKTYIERLEWLAPYGATALFAAGGTGEFFSLTGDEYPLIIKTAVNTCAGKVPIIAGVGGPTRFAIACAQEAERLGAHGILLLPHYLMEAGQEGLIAHVEAVCKSVKFGVIVYNRNVCKLTPESLAILADRCPNLIGFKDGVGNIETMSSIFMKMGDRFSYLGGLPTAEVYAAAYKALGTPVYSSAVFNFIPKTAMDFYHAVASDDLATQHRLLRDFFMPYLALRNKNPGYAVSIVKAGATIVGHDAGPVRPPLTDLKPAEMEELAVLIKSLGPQ
notes: full-length, C-terminal His-tag (CH), codon-optimized gene, E. coli ArcticExpress(DE3), IMAC purified
B2: KdgDAb (Acinetobacter baylyi ADP1) (protein)
chain: MDALELKNIVSDGLLSFPVTDFDQNGDFNAASYAKRLEWLAPYGASALFAAGGTGEFFSLTGDEYSDVIKTAVDACKGSVPIIAGAGGPTRQAILQAQEAERLGAHGILLMPHYLTEASQEGLVEHVKQVCNAVNFGVIFYNRSVSKLNVDSLQQLVESCPNLIGFKDSSGQIDMMTEVVQTLGDRLSYLGGLPTAEIFAAPYKALGSPVYSSAVFNFIPKTAMEFYNALRNDDFATTQRLIRDFFLPLIKIRNRKSGYAVSMVKAGAKIVGHDAGPVRPPLSDLTPQDYEDLAALIATLGPQ
notes: full-length, N-terminal His-tag (NH), codon-optimized gene, E. coli BL21(DE3), IMAC purified

Key:
[1] = substrate: O=C(O)C(=O)C[C@H](O)[C@@H](O)C(=O)O; assay: purified protein; type: biochemical, Polaromonas naphthalenivorans; details: 2.5 mM KPi pH 7.0, 2 mM MgCl2, 25 μg/ml BTB, 37 °C
[2] = substrate: O=C(O)C(=O)C[C@H](O)[C@@H](O)C(=O)O; assay: purified protein; type: biochemical, Acinetobacter baylyi; details: 2.5 mM KPi pH 7.0, 2 mM MgCl2, 25 μg/ml BTB, 37 °C

| Protein | Km [1] | Vmax [1] | kcat [1] | kcat/Km [1] | Km [2] | Vmax [2] | kcat [2] | kcat/Km [2] |
| --- | --- | --- | --- | --- | --- | --- | --- | --- |
| B1 | 1100 ± 100 µM | 3 µmol/min/mg | 1.7 ± 0.01 s⁻¹ | 1500 M⁻¹ s⁻¹ |  |  |  |  |
| B2 |  |  |  |  | 1000 ± 100 µM | 8 µmol/min/mg | 4.5 ± 0.02 s⁻¹ | 4500 M⁻¹ s⁻¹ |

Reference: paper PMC5114784, “Identification and characterization of two new 5-keto-4-deoxy-D-Glucarate Dehydratases/Decarboxylases” (BMC Biotechnology, 2016)
